The DeepSol protein solubility set

experiment: soluble on expression in E. coli; label from the status in PepcDB or PDB records

| Sequence | soluble on expression in E. coli |
| --- | --- |
| MAHHHHHHMGGVRGGRNKSHKLPVKFMAAAKQELVNSRLTLQEELLHSAFDDHSAYRMRITGLKQQNLDLSFTVSELEEQVRDLYTYIHEKRFARQVDEQGNEIAVMTPRPRGVPLALQTELGIDLRHSTANILSELSTLSINMKHQLNSALLRARQLHTLSAWLDEGNETSVSGGGVGGMLERVSEAAAIPVFPVSAWPSIPHFLRTFIAPDVPNYFWTETQAACILYNFFKRYKAIRRRARFVRDNKMLAPRVYQLFEHREVLLTRLDAGKEDVAAAEENTPFGYVVTQFAREVLANLSPQNTQPHLPLVLPGTVALRFPQTSSTPSQSKSLQSGERRG | not soluble |
| MSMSDINKNSELIFIPAPGIGHLASALEFAKLLTNHDKNLYITVFCIKFPGMPFADSYIKSVLASQPQIQLIDLPEVEPPPQELLKSPEFYILTFLESLIPHVKATIKTILSNKVVGLVLDFFCVSMIDVGNEFGIPSYLFLTSNVGFLSLMLSLKNRQIEEVFDDSDRDHQLLNIPGISNQVPSNVLPDACFNKDGGYIAYYKLAERFRDTKGIIVNTFSDLEQSSIDALYDHDEKIPPIYAVGPLLDLKGQPNPKLDQAQHDLILKWLDEQPDKSVVFLCFGSMGVSFGPSQIREIALGLKHSGVRFLWSNSAEKKVFPEGFLEWMELEGKGMICGWAPQVEVLAHKAIGGFVSHCGWNSILESMWFGVPILTWPIYAEQQLNAFRLVKEWGVGLGLRVDYRKGSDVVAAEEIEKGLKDLMDKDSIVHKKVQEMKEMSRNAVVDGGSSLISVGKLIDDITGSN | soluble |
| MGSDKIHHHHHHMSIELIDLHPAPADLKQLVQSGFKCQPRQLPAWVLYDAKGSRLFAQICEQPEYGLTRTEIKLLEENAPAIAKAVGDGVIVEFGIGNARKVSPLLNAIRPSTFVALDISQAALKDSLTRLASTYPMVSILGICCDHSSMQALPPHPRLEGVRCIGFFPGSSLGNFTPKEAVAVLRRFRKLLGGGPLLLGLDQPRDPIQLEAAYNDEAGISAAFARNLLHRLNRELEADFRPDQFSYRARWQEEFHRIEMALVSRCSQTIVIDNSTWSFSAGEPLITEYSVKYNPQEAARLAEKAGWRINQRWHDSADSLSLHLLEPSD | not soluble |
| LGSMESTQQMAVSIINSSFEAAVVAATSALENMGIEYDYQDIYSRVKNKFDFVMDDSGVKNNPIGKAITIDQALNNKFGSAIRNRNWLADTSRPAKLDEDVNKLRMMLSSKGIDQKMRVLNACFSVKRIPGKSSSIIKCTKLMRDKLERGEVEVDDSFVDEKME | soluble |
| MEGIDMLDIKLIRENPELVKNDLIKRGELEKVKWVDEILKLDTEWRTKLKEINRLRHERNKIAVEIGKRRKKGEPVDELLAKSREIVKRIGELENEVEELKKKIDYYLWRLPNITHPSVPVGKDENDNVPIRFWGKARVWKGHLERFLEQSQGKMEYEILEWKPKLHVDLLEILGGADFARAAKVSGSRFYYLLNEIVILDLALIRFALDRLIEKGFTPVIPPYMVRRFVEEGSTSFEDFEDVIYKVEDEDLYLIPTAEHPLAGMHANEILDGKDLPLLYVGVSPCFRKEAGTAGKDTKGIFRVHQFHKVEQFVYSRPEESWEWHEKIIRNAEELFQELEIPYRVVNICTGDLGYVAAKKYDIEAWMPGQGKFREVVSASNCTDWQARRLNIRFRDRTDEKPRYVHTLNSTAIATSRAIVAILENHQEEDGTVRIPKVLWKYTGFKEIVPVEKKERCCAT | soluble |
| MIKLKNVTKTYKMGEEIIYALKNVNLNIKEGEFVSIMGPSGSGKSTMLNIIGCLDKPTEGEVYIDNIKTNDLDDDELTKIRRDKIGFVFQQFNLIPLLTALENVELPLIFKYRGAMSGEERRKRALECLKMAELEERFANHKPNQLSGGQQQRVAIARALANNPPIILADEPTGALDSKTGEKIMQLLKKLNEEDGKTVVVVTHDINVARFGERIIYLKDGEVEREEKLRGFDDR | soluble |
| MRLTKLAATIGCVTLSGLALVACSSDSTAGTDAVAVGGTFQFHSPDGKMEIFYDEADRQQLPDIGGDSLMEEGTQINLSDFENQVVILNAWGQWCAPCRSESDDLQIIHEELQAAGNGDTPGGTVLGINVRDYSRDIAQDFVTDNGLDYPSIYDPPFMTAASLGGVPASVIPTTIVLDKQHRPAAVFLREVTSKDVLDVALPLVDEA | not soluble |
| AHHHHHHGSKLIEMLKEITQVPGISGYEERVREKIIEWIKDYADYKVDEIGNLIVELGEGEVKAVFMAHMDEIGLLITGITQDGKLRFRKVGGIDDRLLYGRHVDVITENGKLDGVIGALPPHLNVKGVKDVVPWYQLTIDIGAESKEEALSLGVKPLDYAVFKKHFSVLNNKIVSTRSLDDRFGVVALVQAIRNLVDHELSGKFIFAFTVQEEIGLKGAKFLAEKYSPEYAFAIDSFACCSELTGDVRLGGGAVIRAVDNSAIYSRDLARKVWEIAEKNNIPIQIGVTGGGTDASVFQHKSKVLALSVPMKYLHSEVEMLNVKDLEALIALIEAITFEI | soluble |
| MGSDKIHHHHHHMTPTLPDRKQNPPSAPAATVSLRLLEIFMLVAQEGSVSAAANRLNLTQAAVSQAITVLEQALDVKLLDRSVRPPLLTLRGSTALQYAREILAKVHEFEDAMRYSGSGRVPLLRIGMLNSFASTAGAFVLNQLRDIAAEWTVASGFRETCIQALLDRQSDVIITTDETPAPSEIEVFPIFSEPFVAVVPASFDGKTERLQDIADKLDFIHYGHDSHMGSKITNYLKKIGTVPARRYQFDTTDAALHMVAGGFGWAIVTPLIYLKSRVEGSGVRVVPLTRLPIHRTFIVGMRRGEGSDIAQRVRTAAIITLRDVILPQIEAVLPEASKGVSVAEIEPKASTGKRKGSRRDSAGS | not soluble |
| MGSSHHHHHHSSGLVPRGSHMAHQDALPRLPVPPLQQSLDYYLKALQPIVSEEEWAHTKQLVDEFQTSGGVGERLQKGLERRAKKMENWLSEWWLKTAYLQFRQPVVIYSSPGVILPKQDFVDLQGQLRFAAKLIEGVLDFKSMIDNETLPVEFLGGQPLCMNQYYQILSSCRVPGPKQDSVVNFLKSKRPPTHITVVHNYQFFELDVYHSDGTPLTSDQIFVQLEKIWNSSLQSNKEPVGILTSNHRNTWAKAYNNLIKDKVNRESVNSIQKSIFTVCLDKQVPRVSDDVYRNHVAGQMLHGGGSKFNSGNRWFDKTLQFIVAEDGSCGMVYEHAAAEGPPIVALVDHVMEYTKKPELVRSPMVPLPMPKKLRFNITPEIKNDIEKAKQNLSIMIQDLDIMMLTFHHFGKDFPKSEKLSPDAFIQVALQLAYYRIYGQACATYESASLRMFHLGRTDTIRSASIDSLAFVKGMGDSTVPEQQKVELLRKAVQAHRAYTDRAIRGEAFDRHLLGLKLQAIEDLVSMPDIFMDTSYAIAMHFNLSTSQVPAKTDCVMAFGPVVPDGYGICYNPMEAHINFSVSAYNSCAETNAARMAHYLEKALLDMRTLLQNHPRAKL | soluble |
| MAKYTEWLTEEGLIKIEGWARDGLIDKQIAQNIGVAYSTFREWVKKFPALSASLKKGKEVVDRQVENALFKSATGYEYTEVTEELTENGMEITKKVKKQVAPNPTAAIFWLKNRKPDEWRDRKETEVSGVLNISDAAVEIEQFFEDDST | not soluble |
| MGSDKIHHHHHHMNLFSPHLKRNELIKFAKELDFSKSQDLLINVHRNHAFEGVQSIIAPFLHFANLRAEFNFSSYDDSLSFDNFKEASLELLWLDLTRYKNNVQNFIEERLLELRKISQNPILVLSLGEFKTDKKILNCEIFNIEKLIKEYFDEEDILDLAKEELTGSKLNNKALIFLAQILGLSLIPALVKPALKALVLDLDNTLYQGILGEEGIDNLNLSPLHKTLQEKIKTFKKQGFLLALASKNEEKDAKKLFEIRKDFILQWDDFDARMINWEPKGENILKIAKKFNINTNAMLFIDDNIAELENTKITGVKTLLCDENILYKIKLFPNLLKLSNTKEDQIRAKDIAANALREELKSLSDEEYFQNLEISLNFSKNDLQNIPRISELLGKTNQFIANYTRLNQEKVAQHMQKELIVSVSMSDKLSDSGIIAIFVFSCKEGNLFIDDLCISCRALGRKLETRMFFKAFELALHFFDLKNNNARLYYQKGERNMPFLSFLEQISKEFEKNSALIPFQNLNFKGLIIHEN | not soluble |
| MIFAKGHGTQNDFVLLPDVDAELVLTAARVAALCDRRKGLGADGVLRVTTAGAAQAVGVLDSLPEGVRVTDWYMDYRNADGSAAQMCGNGVRVFAHYLRASGLEVRDEFVVGSLAGPRPVTCHHVEAAYADVSVDMGKANRLGAGEAVVGGRRFHGLAVDVGNPHLACVDSQLTVDGLAALDVGAPVSFDGAQFPDGVNVEVLTAPVDGAVWMRVHERGVGETRSCGTGTVAAAVAALAAVGSPTGTLTVHVPGGEVVVTVTDATSFLRGPSVLVARGDLADDWWNAMG | not soluble |
| MGSSHHHHHHSSGRENLYFQGMQCNTSIEDGLDGGDITFPSYSPEAEAQNRFLPRSEFPSVRQLVISKQKSRRRREENVFVGKMEDVLVKWRPPASSHRGAIEAINGTHPYQLSTAQFNSRRSDPFGSTKRDESVRSIVESFTDWWKRNSKMFFRDEEEGVRTEHSASQDDQELQLFEEDLFSFHLSPNDMSTRNSEHQVQTPVLFPYEAPTRTKQNPAERKVIEIGDGEELSIYRDVYSNPIPVSYLDTLNLNHSMSVRQTQQQQQQRQQQQYVDSSSAFQCCTDSNWARIFFCHHD | soluble |
| MSSDGEQDEENPILARHRREKKELRGKILAKKKAAKCGNKQMQKEAGAECEKMEKEMDERHKKELEEAKKPEESEAVPAENPEASTLSPPSPNPEGSDNDGEGPSSSAFYKTVKISNKAAKKQDKKKKTADKMKAAEAADKEAGKNQLSDRQMEKAAVKEMLAEDHMKMIDIPADGDCMYNAISHQLQEEGIEISVRKLRKRCGTYMREHSEDFRPFIEDMANMDSDSSWATYLGGVENVAEIGGVWGGELELKACSMIFEKTIVVYKQYGGRHTIGEEYSSPKDRALRVVFLRHAYSLGEHYNSTCPY | soluble |
| MNTVPFTSAPIEVTIGIDQYSFNVKENQPFHGIKDIPIGHVHVIHFQHADNSSMRYGYWFDCRMGNFYIQYDPKDGLYKMMEERDGAKFENIVHNFKERQMMVSYPKIDEDDTWYNLTEFVQMDKIRKIVRKDENQFSYVDSSMTTVQENELLKSSLQKAGSKMEAKNEDDPAHSLNYTVINFKSREAIRPGHEMEDFLDKSYYLNTVMLQGIFKNSSNYFGELQFAFLNAMFFGNYGSSLQWHAMIELICSSATVPKHMLDKLDEILYYQIKTLPEQYSDILLNERVWNICLYSSFQKNSLHNTEKIMENKYPELLGKDNEDDALIYGISDEERDDEDDEHNPTIVGGLYYQRP | soluble |
| MGSDKIHHHHHHMKKTYLFSPGPVMVTDKVRNSLLHYDICHRGNEFMNLFKDTQQKINKLYNATSNYYSLIVSGSGTSVNECVLSSIFDKEDAVLLVSNGVFGERLEEILSTYNVKTYKPNFEWAEYPDLDILEKYIIENSDIKVIAMVFHETSSGMINPVPELGKLAKKYNKIFFVDAISASAGEYIDVEEFNIDIITGVGGKALGAFPGSAYLCAKESILQNIKENQCKNVYLNLYKHYKVAKSSSQTPNTPNVTLIFALNEALTEFLEDDSKIERYKECSAILRNGMEELGLTFLLPDKYMSNTVTSVFLPKEINVNEFILGLERESGYVVYPGKGKFLDANIFQVANMGEIYPEDCYKFLDILKSKLEIKKVI | not soluble |
| MQDKCMMRPLSNPLTEAYNVQNLYQCLNCDDYHLCNGSLNCDPLVDREGIVCTVTGKYIQCNVRELEHHHHHH | not soluble |
